Reference: publication PMC6929137, “Thrombin Aptamer-Modified Metal–Organic Framework Nanoparticles: Functional Nanostructures for Sensing Thrombin and the Triggered Controlled Release of Anti-Blood Clotting Drugs”

Assays:
[1] = molecular target: vascular endothelial growth factor 165 (VEGF) (human, UniProt P15692-4 27-191); test: strand-displacement release of rhodamine 6G and Apixaban from gated NMOFs (fluorescence); 1 uM protein; background release only; 10 mM HEPES pH 7.4, 20 mM NaCl, 10 mM KCl, 10 mM MgCl2; 30 min; temperature not stated; details: protein: commercial; chain copies: 2; label: none on DNA; read-out is released rhodamine 6G or Apixaban fluorescence; 11 bp duplex, 5' overhang 8 nt on aptamer strand
[2] = molecular target: thrombin (UniProt P00734;P00734 328-363;364-622); test: strand-displacement release of rhodamine 6G from gated NMOFs (fluorescence); thrombin 0.25-1 uM; 10 mM KCl, 10 mM MgCl2; competes with anchor strand (1); 10 mM HEPES pH 7.4, 20 mM NaCl, 10 mM KCl, 10 mM MgCl2; 30 min; temperature not stated

Chain of vascular endothelial growth factor 165 (VEGF) (P15692 other isoform, or with tags, fused parts or gaps): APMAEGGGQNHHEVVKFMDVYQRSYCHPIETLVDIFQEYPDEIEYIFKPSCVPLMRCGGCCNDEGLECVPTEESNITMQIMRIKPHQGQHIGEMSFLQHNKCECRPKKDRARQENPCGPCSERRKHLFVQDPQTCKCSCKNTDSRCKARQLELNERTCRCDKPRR

B1: thrombin aptamer (2) hybridized to anchor (1) on UiO-68 NMOFs (mixed)
DNA: GGTTGGTGTGGTTGGTTTT
?: AAAACCAACCA
modifications: strand 2 (anchor): 5'-NH2-(CH2)6, DBCO-modified, clicked to azide-functionalized UiO-68 NMOF
- binding result [1]: no binding
- binding result [2]: binds
